Test results from PMC8156467, “Disruption of YY1-EZH2 Interaction Using Synthetic Peptides Inhibits Breast Cancer Development” (Cancers, 2021).

System: HA-YY1
Assay: Co-IP of Flag-EZH2 wt/mutants with HA-YY1
Type: binding
Conditions: OPB domain of YY1 deleted
Text: HA-tagged expression vectors of wild-type (wt) and mutant YY1 were constructed by amplifying and subcloning the corresponding fragments of the YY1 coding region into the pcDNA3 vector. To generate EZH2 mutants, different regions of its coding sequence (1–251, 252–384, 385–618, 619–751, 385–465, 465–545, 545–618, 465–492, and 465–519) were amplified and subcloned into pGEX-4T-1 and pSL4-3×Flag plasmids to construct vectors expressing recombinant GST-EZH2 and 3×Flag-EZH2 mutants, respectively. To generate vectors expressing 3×Flag-YPB, -OPB, and -Cont (with a scrambled sequence of […]) peptides, their coding sequences were individually subcloned into a lentiviral vector pSL4 using the CMV promoter to drive the expression of 3×Flag-YPB-2A1-EGFP, 3×Flag-OPB-2A1-EGFP, and 3×Flag-Cont-2A1-EGFP. […]
Immunoprecipitations were performed as described previously. […] In Western blot studies, protein concentrations of samples were determined using the Bradford protein method, and 20 μg of proteins for each sample were separated by SDS-PAGE followed by transfer to polyvinylidene difluoride (PVDF) membranes. […]
Figure 1 Identification of YY1 binding site on EZH2 protein. […] The samples were analyzed by Western blot using EZH2 and YY1 antibodies as indicated. […]

B1: HA-YY1 (ΔOPB): YY1 mutant with the OPB domain deleted (protein)
chain: MASGDTLYIATDGSEMPAEIVELHEIEVETIPVETIETTVVGEEEEEDDDDEDGGGGDHGGGGGHGHAGHHHHHHHHHHHPPMIALQPLVTDDPTQVHHHQEVILVQTREEVVGGDDSDGLRAEDGFEDQILIPVPAPAGGDDDYIEQTLVTVAAAGKSGGGGSSSSGGGRVKKGGGKKSGKKSYLSGGAGAAGGGGADPDEKKDIDHETVVEEQIIGENSPPDYSEYMTGKKLPPGGIPGIDLSDPKQLAEFARMKPRKIKEDDAPRTIACPHKGCTKMFRDNSAMRKHLHTHGPRVHVCAECGKAFVESSKLKRHQLVHTGEKPFQCTFEGCGKRFSLDFNLRTHVRIHTGDRPYVCPFDGCNKKFAQSTNLKSHILTHAKAKNNQ
modifications: left off: HA, end not stated, kept
Q: Which “binding of HA-YY1 (ΔOPB) to wt EZH2 in co-IP” value does the source give for B1 here?
A: did not show detectable binding affinity
